Experimental data from PMC4891260 (2015).

Target: T1, DEAD box helicase p68 S551F (mp68) peptide on H-2Kb (mouse)
T1 peptide: SNFVFAGI
Assay: killing

B1: 1D9 TCR (TCR)
alpha TRAV1 TRAJ30 CDR3: CAVRSDTNAYKVIF
beta TRBV19 TRBJ2-7 CDR3: CASSKRLSSYEQYF
B1: recognises.
